The target in this assay is His-tagged recombinant AjBNIP3 (rAjBNIP3) (Apostichopus japonicus). Description: MST.

Drawing on paper PMC8920847, this text covers Kd for 1 substance.

As a reminder, the Kd is the equilibrium constant for the complex coming apart. Turning to Recombinant His-AjLC3 (natural protein), the Kd was 2.82 µM.
